Test results: PMC10411744 (PLOS Pathogens, 2023)

Legend:
[1] = molecular target: X31 (H3N2) trimeric full-length HA (prefusion stabilized HA) (influenza A virus X31 (H3N2), biotin (biotinylated for capture on streptavidin)); assay: ELISA; conditions: both partners purified
[2] = molecular target: HA of H1 A/Narita/1/2009 (influenza A virus A/Narita/1/2009 (H1)); assay: ELISA; conditions: both partners purified

| Binder | binding result [1] | binding result [2] |
| --- | --- | --- |
| LAH31 with light chain position 92 reverted to germline (R92L) (antibody, V domains shown, IgG1) VH: QVQLEQSGAEVKKPGSSVKVSCKASGPMFSRSAFSWVRQAPGQGLEWMGRIIPTVDLKNYAQKFQGRVTFTADKSTATSYMELRSLKSEDTAVYYCARMGSGSSYYGMDVWGLGTTVTVSS VL: DIVMTQSPLSLPVIPGEPASISCRSSQSLLQSNGNNYLDWYLQKPGQSPQLLIYLGSNRASGVPDRFSGSGSGTDFTLTISRVEAEDVGVYYCLQALQSSVLTFGGGTKLEIK | binds | – |
| LAH31 with light chain position 94 reverted to germline (Ser94 to Thr94) (antibody, V domains shown) VH: QVQLEQSGAEVKKPGSSVKVSCKASGPMFSRSAFSWVRQAPGQGLEWMGRIIPTVDLKNYAQKFQGRVTFTADKSTATSYMELRSLKSEDTAVYYCARMGSGSSYYGMDVWGLGTTVTVSS VL: DIVMTQSPLSLPVIPGEPASISCRSSQSLLQSNGNNYLDWYLQKPGQSPQLLIYLGSNRASGVPDRFSGSGSGTDFTLTISRVEAEDVGVYYCLQARQTSVLTFGGGTKLEIK | binds | binds |
| LAH31 with light chain position 95 reverted to germline (Ser95 to Pro95) (antibody, V domains shown) VH: QVQLEQSGAEVKKPGSSVKVSCKASGPMFSRSAFSWVRQAPGQGLEWMGRIIPTVDLKNYAQKFQGRVTFTADKSTATSYMELRSLKSEDTAVYYCARMGSGSSYYGMDVWGLGTTVTVSS VL: DIVMTQSPLSLPVIPGEPASISCRSSQSLLQSNGNNYLDWYLQKPGQSPQLLIYLGSNRASGVPDRFSGSGSGTDFTLTISRVEAEDVGVYYCLQARQSPVLTFGGGTKLEIK | binds | binds |
| LAH31 mouse IgG2c KA mutant (antibody, V domains shown) VH: QVQLEQSGAEVKKPGSSVKVSCKASGPMFSRSAFSWVRQAPGQGLEWMGRIIPTVDLKNYAQKFQGRVTFTADKSTATSYMELRSLKSEDTAVYYCARMGSGSSYYGMDVWGLGTTVTVSS VL: DIVMTQSPLSLPVIPGEPASISCRSSQSLLQSNGNNYLDWYLQKPGQSPQLLIYLGSNRASGVPDRFSGSGSGTDFTLTISRVEAEDVGVYYCLQARQSSVLTFGGGTKLEIK | binds | – |
| LAH31 mouse IgG2c LALA mutant (antibody, V domains shown) VH: QVQLEQSGAEVKKPGSSVKVSCKASGPMFSRSAFSWVRQAPGQGLEWMGRIIPTVDLKNYAQKFQGRVTFTADKSTATSYMELRSLKSEDTAVYYCARMGSGSSYYGMDVWGLGTTVTVSS VL: DIVMTQSPLSLPVIPGEPASISCRSSQSLLQSNGNNYLDWYLQKPGQSPQLLIYLGSNRASGVPDRFSGSGSGTDFTLTISRVEAEDVGVYYCLQARQSSVLTFGGGTKLEIK | binds | – |
| LAH31 mouse IgG2c LALA-PG mutant (antibody, V domains shown) VH: QVQLEQSGAEVKKPGSSVKVSCKASGPMFSRSAFSWVRQAPGQGLEWMGRIIPTVDLKNYAQKFQGRVTFTADKSTATSYMELRSLKSEDTAVYYCARMGSGSSYYGMDVWGLGTTVTVSS VL: DIVMTQSPLSLPVIPGEPASISCRSSQSLLQSNGNNYLDWYLQKPGQSPQLLIYLGSNRASGVPDRFSGSGSGTDFTLTISRVEAEDVGVYYCLQARQSSVLTFGGGTKLEIK | binds | – |
